Assay results reported in patent US20150065381A1.
Several values for one entry are separate records, joined by “and”; a condition that tells them apart may be missing. Equal entries are not always repeated.

Columns and labels:
[1] = target: HIV-1 envelope clone G-011.c05 (multiclade gp160 clone panel) (HIV-1); experiment: cell-based or functional assay
[2] = target: HIV-1 envelope clone G-011.c02 (multiclade gp160 clone panel) (HIV-1); experiment: cell-based or functional assay
[3] = target: HIV-1 envelope of gp160 clone B-Chronic-014.c02 (HIV-1); experiment: cell-based or functional assay
[4] = target: HIV-1 envelope of gp160 clone B-Acute-009-c08 (HIV-1); experiment: cell-based or functional assay
[5] = target: HIV-1 envelope of gp160 clone B-Acute-010.c09 (HIV-1); experiment: cell-based or functional assay
[6] = target: HIV-1 envelope of gp160 clone AG-010.c14 (HIV-1); experiment: cell-based or functional assay
[7] = target: HIV-1 JRCSF envelope (HIV-1) (UniProt P20871); experiment: cell-based or functional assay
[8] = target: HIV-1 envelope of gp160 clone B-Acute-010.c08 (HIV-1); experiment: cell-based or functional assay
[9] = target: HIV-1 envelope of gp160 clone B-Acute-008.c11 (HIV-1); experiment: cell-based or functional assay
[10] = target: HIV-1 envelope of gp160 clone AG-010.c11 (HIV-1); experiment: cell-based or functional assay
[11] = target: HIV-1 JRFL envelope (HIV-1); experiment: capture ELISA, plate 1, mAb 7.5 ug/ml
[12] = target: HIV-1 envelope clone G-011.c05 (multiclade gp160 clone panel) (HIV-1); experiment: capture ELISA, plate 1, mAb 7.5 ug/ml
[13] = target: HIV-1 envelope clone G-011.c02 (multiclade gp160 clone panel) (HIV-1); experiment: capture ELISA, plate 1, mAb 7.5 ug/ml
[14] = target: HIV-1 envelope of gp160 clone B-Chronic-014.c02 (HIV-1); experiment: capture ELISA, plate 1, mAb 7.5 ug/ml
[15] = target: HIV-1 envelope of gp160 clone B-Acute-009-c08 (HIV-1); experiment: capture ELISA, plate 1, mAb 7.5 ug/ml
[16] = target: HIV-1 envelope of gp160 clone B-Acute-010.c09 (HIV-1); experiment: capture ELISA, plate 1, mAb 7.5 ug/ml
[17] = target: HIV-1 envelope of gp160 clone AG-010.c14 (HIV-1); experiment: capture ELISA, plate 1, mAb 7.5 ug/ml
[18] = target: HIV-1 JRCSF envelope (HIV-1) (UniProt P20871); experiment: capture ELISA, plate 1, mAb 7.5 ug/ml
[19] = target: HIV-1 envelope of gp160 clone B-Acute-010.c08 (HIV-1); experiment: capture ELISA, plate 1, mAb 7.5 ug/ml
[20] = target: HIV-1 envelope of gp160 clone B-Acute-008.c11 (HIV-1); experiment: capture ELISA, plate 1, mAb 7.5 ug/ml
[21] = target: HIV-1 envelope of gp160 clone AG-010.c11 (HIV-1); experiment: capture ELISA, plate 1, mAb 7.5 ug/ml
[22] = target: HIV-1 16055 envelope (HIV-1); experiment: capture ELISA, plate 1, mAb 7.5 ug/ml
[23] = target: BG505 envelope (gp120 monomer released from lysed pseudovirus) (HIV-1); experiment: antigen capture ELISA, mAb 0.8 ug/ml, plate 2
[24] = target: aMLV envelope (from lysed pseudovirus); experiment: antigen capture ELISA, mAb 0.8 ug/ml, plate 2
[25] = target: BG505 envelope (gp120 monomer released from lysed pseudovirus) (HIV-1); experiment: antigen capture ELISA, mAb 0.3 ug/ml, plate 2
[26] = target: aMLV envelope (from lysed pseudovirus); experiment: antigen capture ELISA, mAb 0.3 ug/ml, plate 2
[27] = target: BG505 envelope (gp120 monomer released from lysed pseudovirus) (HIV-1); experiment: antigen capture ELISA, mAb 7.5 ug/ml, plate 2
[28] = target: aMLV envelope (from lysed pseudovirus); experiment: antigen capture ELISA, mAb 7.5 ug/ml, plate 2
[29] = target: HIV-1 envelope clone G-011.c05 (multiclade gp160 clone panel) (HIV-1); experiment: capture ELISA, plate 1, mAb 2.5 ug/ml
[30] = target: HIV-1 envelope of gp160 clone B-Chronic-014.c02 (HIV-1); experiment: capture ELISA, plate 1, mAb 2.5 ug/ml
[31] = target: HIV-1 envelope of gp160 clone B-Acute-009-c08 (HIV-1); experiment: capture ELISA, plate 1, mAb 2.5 ug/ml
[32] = target: HIV-1 envelope of gp160 clone AG-010.c14 (HIV-1); experiment: capture ELISA, plate 1, mAb 2.5 ug/ml
[33] = target: HIV-1 envelope of gp160 clone B-Acute-010.c08 (HIV-1); experiment: capture ELISA, plate 1, mAb 2.5 ug/ml
[34] = target: HIV-1 envelope of gp160 clone B-Acute-008.c11 (HIV-1); experiment: capture ELISA, plate 1, mAb 2.5 ug/ml
[35] = target: HIV-1 envelope of gp160 clone AG-010.c11 (HIV-1); experiment: capture ELISA, plate 1, mAb 2.5 ug/ml
[36] = target: HIV-1 envelope clone F1-002.c11 (multiclade gp160 clone panel) (HIV-1); experiment: capture ELISA, plate 1, mAb 7.5 ug/ml
[37] = target: HIV-1 envelope clone F1-002.c16 (multiclade gp160 clone panel) (HIV-1); experiment: capture ELISA, plate 1, mAb 7.5 ug/ml
[38] = target: HIV-1 envelope clone BF-002.c05 (multiclade gp160 clone panel) (HIV-1); experiment: capture ELISA, plate 1, mAb 7.5 ug/ml
[39] = target: HIV-1 envelope clone BF-002.c08 (multiclade gp160 clone panel) (HIV-1); experiment: capture ELISA, plate 1, mAb 7.5 ug/ml
[40] = target: HIV-1 envelope clone BF-002.c08 (multiclade gp160 clone panel) (HIV-1); experiment: capture ELISA, plate 1, mAb 2.5 ug/ml

Row | Substance | ELISA OD [12] [OD] | ELISA OD [13] [OD] | ELISA OD [14] [OD] | ELISA OD [15] [OD] | ELISA OD [16] [OD] | ELISA OD [17] [OD] | ELISA OD [18] | ELISA OD [19] [OD] | ELISA OD [20] [OD] | ELISA OD [21] [OD] | ELISA OD [23] [OD] | ELISA OD [24] | ELISA OD [25] [OD] | ELISA OD [26] | ELISA OD [27] [OD] | ELISA OD [28] | ELISA OD [29] [OD] | ELISA OD [30] [OD] | ELISA OD [31] [OD] | ELISA OD [32] [OD] | also measured
1 | PG9 (antibody) | 0.37 | 0.108 | 2.35 | 0.115 | 0.199 | 1.22 | 0.411 OD and 0.454 OD | 0.547 | 0.363 | 0.891 | 0.261 | 0.056 OD and 0.051 OD | 0.162 | 0.057 OD and 0.063 OD | 0.428 | 0.079 OD and 0.071 OD | 0.308 | 1.79 | 0.095 | 0.988 | PG9 IC50 [1]: 0.098 µg/mL; PG9 IC50 [2]: > 50 µg/mL; PG9 IC50 [3]: 0.039 µg/mL; PG9 IC50 [4]: 0.288 µg/mL; PG9 IC50 [5]: 22.2 µg/mL; PG9 IC50 [6]: 0.035 µg/mL; PG9 IC50 [7]: 0.002 µg/mL; PG9 IC50 [8]: 0.147 µg/mL; PG9 IC50 [9]: 0.396 µg/mL; PG9 IC50 [10]: 0.104 µg/mL; ELISA OD [11]: 0.072 OD and 0.11 OD; ELISA OD [22]: 0.519 OD and 0.367 OD; ELISA OD [33]: 0.313 OD; ELISA OD [34]: 0.281 OD; ELISA OD [35]: 0.759 OD
2 | PG16 (antibody) | 0.158 | 0.069 | 0.476 | 0.083 | 0.282 | 0.817 | 0.248 OD and 0.287 OD | 0.272 | 0.205 | 0.332 | 0.165 | 0.072 OD and 0.064 OD | 0.067 | 0.096 OD and 0.103 OD | 0.12 | 0.102 OD and 0.081 OD | 0.126 | 0.398 | 0.074 | 0.485 | PG16 [1]: 0.024 µg/mL; PG16 [2]: > 50 µg/mL; PG16 [3]: 0.037 µg/mL; PG16 [4]: 0.202 µg/mL; PG16 [5]: 1.21 µg/mL; PG16 [6]: 0.007 µg/mL; PG16 [7]: 0 µg/mL; PG16 [8]: 0.015 µg/mL; PG16 [9]: 5.3 µg/mL; PG16 [10]: 0.031 µg/mL; ELISA OD [11]: 0.173 OD and 0.159 OD; ELISA OD [36]: 0.168 OD; ELISA OD [37]: 0.244 OD; ELISA OD [38]: 0.971 OD; ELISA OD [39]: 0.168 OD; ELISA OD [22]: 0.215 OD and 0.16 OD; ELISA OD [40]: 0.146 OD; ELISA OD [33]: 0.186 OD; ELISA OD [34]: 0.189 OD; ELISA OD [35]: 0.216 OD
3 | PGT145 (antibody) | 0.133 | 0.129 | 0.106 | 0.109 | 0.084 | 0.07 | 0.071 OD and 0.084 OD | 0.179 | 0.146 | 0.082 | 0.066 | 0.062 OD | 0.066 | 0.065 OD and 0.157 OD | 0.104 | 0.108 OD and 0.079 OD | 0.087 | 0.064 | 0.078 | 0.065 | PGT145 IC50 [1]: 0.115 µg/mL; PGT145 IC50 [2]: 1.8 µg/mL; PGT145 IC50 [3]: 2.22 µg/mL; PGT145 IC50 [4]: 0.007 µg/mL; PGT145 IC50 [5]: 0.294 µg/mL; PGT145 IC50 [6]: > 50 µg/mL; PGT145 IC50 [7]: 0.003 µg/mL; PGT145 IC50 [8]: 0.032 µg/mL; PGT145 IC50 [9]: 8.2 µg/mL; PGT145 IC50 [10]: 8.27 µg/mL; ELISA OD [11]: 0.076 OD and 0.075 OD; ELISA OD [22]: 0.085 OD and 0.077 OD; ELISA OD [40]: 0.066 OD; ELISA OD [33]: 0.277 OD; ELISA OD [34]: 0.101 OD; ELISA OD [35]: 0.06 OD
4 | PGT151 (antibody) | 0.089 | 0.121 | 0.525 | 0.11 | 0.081 | 0.148 | 0.073 OD and 0.086 OD | 0.206 | 0.256 | 0.081 | 0.054 | 0.054 OD and 0.078 OD | 0.057 | 0.053 OD and 0.128 OD | 0.094 | 0.114 OD and 0.116 OD | 0.073 | 0.206 | 0.076 | 0.164 | ELISA OD [11]: 0.088 OD and 0.08 OD; ELISA OD [36]: 0.087 OD; ELISA OD [37]: 0.105 OD; ELISA OD [38]: 0.286 OD; ELISA OD [39]: 0.087 OD; ELISA OD [22]: 0.08 OD and 0.078 OD; ELISA OD [40]: 0.062 OD; ELISA OD [33]: 0.243 OD; ELISA OD [34]: 0.152 OD; ELISA OD [35]: 0.062 OD
5 | PGV04 (antibody) | 0.451 | 0.865 | 4 | 0.237 | 2.87 | 0.293 | 2.15 OD and 2.33 OD | 2.65 | 0.07 | 0.184 | 0.745 | 0.085 OD | 0.45 | 0.095 OD and 0.115 OD | 1.37 | 0.123 OD | 0.256 | 4 | 0.123 | 0.241 | ELISA OD [36]: 0.28 OD; ELISA OD [37]: 0.54 OD; ELISA OD [38]: 4 OD; ELISA OD [39]: 2.72 OD; ELISA OD [40]: 2.2 OD; ELISA OD [33]: 1.34 OD; ELISA OD [34]: 0.059 OD; ELISA OD [35]: 0.136 OD
